Measured values taken from patent US20080292609A1, “Use of Arginase in Combination with 5FU and Other Compounds for Treatment of Human Malignancies” (priority 2007, published 2008).

Columns and labels:
[1] = Arginase specific activity; type: biochemical; conditions: purified arginase sample, or after pegylation with mPEG-SPA MW 5,000 (mole ratio 1:50)
Experimental: The purified Arginase as prepared using the methods described above was used for pegylation. Using the previous examples to illustrate the method, an arginase sample with specific activity=518 I.U./mg was dissolved in PBS buffer before carrying out pegylation.
The mPEG-SPA (cat. no. 2M4MOH01, Nektar, USA), MW 5,000 (5.82 g) was added into 555 ml of the purified Arginase (813.64 mg, 1.466 mg/ml) solution slowly in a 1 L beaker and then stirred for 2 h 40 min at room temperature (mole ratio of Arginase:mPEG-SPA=1:50). The mixture was then dialyzed extensively by ultra-dialysis against 15 L of PBS buffer using the F50(S) capillary dialyzer (Fresenius Medical Care, Bad Homburg, Germany) to remove all the unincorporated PEG. The mPEG-SPA uses amino groups of lysines and the N-terminus of the protein as the site of modification. In this example, the measured specific activity of the pegylated Arginase was as high as 592 I.U./mg.

[2] = ½-life determination of pegylated Arginase in vitro in human blood plasma; type: in vitro ADME; conditions: 37° C., 0.24 mg/ml pegylated Arginase
Experimental: As used herein, the term “half-life” (½-life) refers to the time that would be required for the concentration of the Arginase in human plasma in vitro, to fall by half.
Purified Arginase (1 mg) was dissolved in 1 ml of 125 mM borate buffer solution (pH 8.3) on ice. Activated PEG (mPEG-SPA, MW 5,000) (7.14 mg) was added into the protein solution slowly at a mole ratio of Arginase:PEG=1:50. The mixture was stirred on ice for 2.5 h.
Pegylated Arginase (305.6 μl) at a concentration of 1 mg/ml was added into human plasma (1 ml) and the final concentration of pegylated Arginase was 0.24 mg/ml. The mixture was divided into 20 aliquots in eppendorf tubes (65 μl mixture in each eppendorf tube) and then incubated at 37° C. A 1-2 μl portion of the mixture from each eppendorf tube was used to test the Arginase activity. In this example, the ½-life was determined to be approximately 3 days. It took about 3 days to reduce the relative activity from 100% to 50%.

Molecule | specific activity [1] [I.U./mg] | ½-life (time for relative Arginase activity to fall from 100% to 50%) [2]
arginase: Recombinant human Arginase I with N-terminal 6xHis tag (SEQ ID NO: 3), produced in B. subtilis LLC101 (protein, listed as Homo sapiens, N-terminal 6xHis tag) MHHHHHHMSAKSRTIGIIGAPFSKGQPRGGVEEGPTVLRKAGLLEKLKEQECDVKDYGDLPFADIPNDSPFQIVKNPRSVGKASEQLAGKVAQVKKNGRISLVLGGDHSLAIGSISGHARVHPDLGVIWVDAHTDINTPLTTTSGNLHGQPVSFLLKELKGKIPDVPGFSWVTPCISAKDIVYIGLRDVDPGEHYILKTLGIKYFSMTEVDRLGIGKVMEETLSYLLGRKKRPIHLSFDVDGLDPSFTPATGTPVVGGLTYREGLYITEEIYKTGLLSGLDIMEVNPSLGKTPEEVTRTVNTAVAITLACFGLAREGNHKPIDYLNPPK | 518 | 
pegylated Arginase: Arginase I modified by pegylation with mPEG-SPA MW 5,000 to increase stability and minimize immunoreactivity (protein, UniProt P05089 1-322, looked up, mPEG-SPA 5 kDa) Arginase-1: MSAKSRTIGIIGAPFSKGQPRGGVEEGPTVLRKAGLLEKLKEQECDVKDYGDLPFADIPNDSPFQIVKNPRSVGKASEQLAGKVAEVKKNGRISLVLGGDHSLAIGSISGHARVHPDLGVIWVDAHTDINTPLTTTSGNLHGQPVSFLLKELKGKIPDVPGFSWVTPCISAKDIVYIGLRDVDPGEHYILKTLGIKYFSMTEVDRLGIGKVMEETLSYLLGRKKRPIHLSFDVDGLDPSFTPATGTPVVGGLTYREGLYITEEIYKTGLLSGLDIMEVNPSLGKTPEEVTRTVNTAVAITLACFGLAREGNHKPIDYLNPPK | 592 | approximately 3 days
